Reference: the DeepSol protein solubility set

Assay: soluble on expression in E. coli; label from the status in PepcDB or PDB records

In the case of “MGSDKIHHHHHHMALGHRVKEAREFRSLKQGELAELIGWTQQALSTLENRDSKKSSYSAQISKALDIDIDWLISGAGEMINTKKEAKSAKKLIKYVPVKGSAQMGDNGFWSELDYMGAGGDGYLEVNNASDSAYVIRAVGDSMFPAIRSGWYIVFDPSREACSGEYVHIVLKDGRNMVKEYVSCQHGIVNLISVNGMERISFNCEDVDVLNPFVEIQPPSRLRDDLDLFDTKCEEM”, the “soluble on expression in E. coli” value is reported as “not soluble”.
In the case of “MSLKKENSVEFKVSGRYALFSDPINRIGGEKFSYQVPTYQALKGILESVYWKPTLIWIIDEVRVMNLIKTQSQNIRPVNFSGTSKGTGTPLNTLSIYTYLTNVEYQVKAHFEWNYNRPNLEKDRNENKHYIVAKRMINRGGRRDVFLGTRECQAYVEPCKFGEGEGAYDHYGSLSFGLMFHGFDYPDETGEDKLTARLWSPVMNNGYIKFLRPDECTIKRELSSMKPKVFDENNFSGLEEFEEEGDIIELDSEGHHHHHH”, the “soluble on expression in E. coli” value is reported as “soluble”.
For “MSLSKNNETLEALSKEYRDTIPADLRKTNTFDWYLQQLYDEPKIARNAHQRVADMFDYYGKSYDEEAGVVEYELASEDPLHDGENTFYGRVIHEAMHEFVNKVKSGARGLGPEKRIKLLLGPVGSGKSDFDRQVRRYFEDYTSRDEGRMYTFRWTNLCDVIHDQDPADDVVRSPMNQDPLVLLPQAQRDKVIEDINAELDAPYTIRNEQSLDPASEFYMDRLLAEYDDDLQAVLENHVEIVRFVADENQRRGIETFEPKDKKNQDETELTGDVNYSKIAIYGESDPRAFDYSGAFCNANRGIFSGEELLKLQREFLYDFLHASQEQTIKPKNNPRIDIDQVIVGRTNMPEYRDKKGDEKMEAFNDRTKRIDFPYVLQYEAEANIYQKMLRNADLPDIQVEPHTLEMAGLFGVLTRIEEPDNESIDLVQKAKAYNGEIDEADDVDVKKLREEAEKMADIGEGMDGVSPRFIGDEIAEAIMDSMHRSRDFLSPLTTFNHLEGNLENHGSIDEESFSKYYRFLELVREEYKERAIEDVRHALAYDMDEIQRQGEKYMDHVMAYIDDATVEDELTGREQEPDEQFLRSVEEKLNLPEDRKDDFRQEVSNWVSRRAREGDTFNPQDNDRLRRALERKLWEDKKHNINFSALVSSSEMDDEERNQWVDALIEQGYSEEGAKEVLEFAGAEVAKSEMEEEGHHHHHH”, the “soluble on expression in E. coli” value was “soluble”.
In the case of “GSVASVHASISGSSASSTSSTPEVKPLKSLLGDSAPTLHLNKGMAILFAVVARGTTILAKHAWCGGNFLEVTEQILAKIPSENNKLTYSHGNYLFHYICQDRIVYLCITDDDFERSRAFSFLNEVKKRFQTTYGSRAQTALPYAMNSEFSSVLAAQLKHHSENHHHHHH”, the “soluble on expression in E. coli” value is reported as “soluble”.
For “MPIEIITDSGADLPQSYIREHRIAFLPLVVHWNGQDYKDGITIEPKQVYDAMRQGHTVKTAQPSPLAMKELFLPYAKENRPCLYIAFSSKLSGTYQTAMAVRSELLDEYPEFRLTIIDSKCASLGQGLAVMKAVELAKQNTPYNLLCETIESYCRHMEHIFTVDNLDYLARGGRISKTAAAFGGLLNIKPLLHVEDGALIPLEKWRGRKKVLKRMVELMGERGDDLQKQTIGISHADDEETALELKQMIEETHGCTRFFLSDIGSAIGAHAGPGTIALFFLNKYIEI”, the “soluble on expression in E. coli” value was “soluble”.
In the case of “MVAIVDVGITKFGKRKENIFDLVKEVTEKLLKYDIDYVIVSNSYSGEFNQTSGLSSLITTYLNLDYVPSLRVDNTSGSGGSAILVAKSLLESKEANTVLVVGVEKMSEKKTREVTKIISSLLPFEERIASLPSLASISAIEYMRKFNAPRESIAQVAVKNHYNGSLNPFAHIQKRVTLEEVLNSPVISEPLRLYEYTPISDGAAAVVMVRNEDALSYTSKPVYIKGIGSSNYTAYVSEKEDFVTLPAVVEASRKAFKKAKVERIDFAELHDMATILEIIQSEDIGLFKKGEGWKAVMEGLTSLDGEIPINPSGGLNSKGHPIGASGVAQAVEAFSQIRNEAGNRQVKNARVGLSLSMAGYGNSATVIIYGDEP”, the “soluble on expression in E. coli” value is reported as “soluble”.
For “WTVIGGYLIVAGKDATTNEMLIKRYVEKNDIVFHTLMEGAPFTIIRTEGSEEIPDENILFEVAKFAASHSRAWKLGIGSADVYWVRPDQISKTAESGEYLKK”, the “soluble on expression in E. coli” value was “not soluble”.
With “MNKKEIFKLAKGFRGRAKNCIRIARERVEKALQYSYRDRRNKKREMRGLWIERINAGSRQHGVNYGNFIHGLMKENIQLNRKVLSELSMHEPYSFKALVDVSRKSFPGNKNVVQASRKVDISSINA” the “soluble on expression in E. coli” value was “soluble”.
For “MASQLTQRGALFLLFFLTPAVTPTWYAGSGYYPDESYNEVYAEEVPQAPALDYRVPRWCYTLNIQDGEATCYSPKGGNYHSSLGTRCELSCDRGFRLIGRRSVQCLPSRRWSGTAYCRQMRCHALPFITSGTYTCTNGVLLDSRCDYSCSSGYHLEGDRSRICMEDGRWSGGEPVCVDIDPPKIRCPHSREKMAEPEKLTARVYWDPPLVKDSADGTITRVTLRGPEPGSHFPEGEHVIRYTAYDRAYNRASCKFIVKVQVRRCPTLKPPQHGYLTCTSAGDNYGASCEYHCDGGYDRQGTPSRVCQSSRQWSGSPPICAPMKINVNVNSAAGLLDQFYEKQRLLIISAPDPSNRYYKMQISMLQQSTCGLDLRHVTIIELVGQPPQEVGRIREQQLSANIIEELRQFQRLTRSYFNMVLIDKQGIDRDRYMEPVTPEEIFTFIDDYLLSNQELTQRREQRDICE”, the “soluble on expression in E. coli” value was “soluble”.
In the case of “SAKTDKLAQFLDSGIYESDEFNWFFLDTVRITNRSYTRFKVSPSAYYSRFFNSKQLNQHSSESNPKKRKRKQKNSSFHLPSVGEQASNLRHQEARLFLSKAHESFLKEIELLSLTKGLSDDNDDDDSSLLNKCCDDEVSFIELGGVWQAPFYEITLSFNLHCDNEGESCNEQRVFQVFNNLVVNEIGEEVEAEFSNRRYIMPRNSCFYMSDLHHIRNLVPEKISHYHIGRRCNSLIDVIYAAKSEEGYNLIVIDPPWENASAHQKSKYPTLPNQYFLSLPIKQLAHAEGALVALWVTNREKLLSFVEKELFPAWGIKYVATMYWLKVKPDGTLICDLDLVHHKPYEYLLLGYHFTELAGSEKRSDFKLLDKNQIIMSIPGDFSRKPPIGDILLKHTPGSQPARCLELFAREMAAGWTSWGNEPLHFQDSRYFLKV”, the “soluble on expression in E. coli” value is reported as “soluble”.
For “MARLSGILADSDIQALIDNNFLKALWPFDAAQIQPASLDLRLGEKAYRIRASFMPGADVRVLDKLERLKLHEFDLRDGAVLETGCVYIVPLLENLALPEILSAIANPKSSTGRLDIFTRVITDNAQEFDKICVGYHGPLYLEISPRTFPILVRTGSRLFQLRFRKGHSYLNEIELHALHRDETLISDDLPNISAGGIGLSINLKGDENGLVGYRGKRHTSVIDIDKHAVANILDFWEPLFDRGQRELILDPDEFYILVSRESVHVPPLYAAEMTPFDPLVGEFRVHYAGFFDPGFGHMEAGGKGARAVLEVRSHEVPFILEHGQIIGRLVYEQMLKRPLALYGEDSGSHYQAQGLKLSKHFR”, the “soluble on expression in E. coli” value was “not soluble”.
With “MSGFYNRGKMKFIHAADIHLGNPISGIDRKINLPEEVKKQIALATFTAFSNVIKLAVDRHVDFVLFPGDLFDSSQQSAYLYNFLNQQFQNLKEAGIEAFISFGNHDFQSDVENDFIWPENVHAFPKSKAKTFFHDSWDGKRVAITGTSFVVRNPRESLVPLYPSRDQSATYQIGMYHGSQGNSSANNYAPFSVGDLQALNYDYWALGHIHVRQVLSKNPAIVYSGDPQGLDLTETGEKGVYFVSDENDQGGLTAEFVPCSSFVFDSFELSINDQSAISNISDLIVQELLSFNHKKMSLNAIRVNLSASLPEKILDQLTDTSFLDLVNSKTIREKQFLIKMDLNVDQKKDNFNQLEERYWQAAKNDVFDEQSFNQALLRTFNSNQQFVIRHFTDPNVQAKLMSKAEQIISERIS” the “soluble on expression in E. coli” value was “not soluble”.
In the case of “MSNKIVTLEINLEPSDNRRLASLCGPFDDNIKHLERRLGVEINHRSDHFTIVGKPHTSAAALDILKTLYVDTAPVRGEIPDIEPEQIHLAIKESGVLEQNTESSIAHGKEVFVKTKKGVIKPRTPNQAQYLVNMVTHDISFGIGPAGTGKTYLAVAAAVDALERQEIRRILLTRPAVEAGEKLGFLPGDLSQKVDPYLRPLYDALFEMLGFERVEKLIERNVIEVAPLAYMRGRTLNDAFIILDESQNTTVEQMKMFLTRIGFNSRAVITGDVTQIDLPRGAKSGLRHAIEVLSEVDDISFNFFQADDVVRHPVVARIVNAYEKWEAQDQKERKEFEKRRREERDAKLLEAAKAELSAQVAATKE”, the “soluble on expression in E. coli” value is reported as “not soluble”.
For “SLEEKVRPCIDLIDSLRALGVEQDLALPAIAVIGDQSSGKSSVLEALSGVALPRGSGIVTRCPLVLKLKKLVNEDKWRGKVSYQDYEIEISDASEVEKEINKAQNAIAGEGMGISHELITLEISSRDVPDLTLIDLPGITRVAVGNQPADIGYKIKTLIKKYIQRQETISLVVVPSNVDIATTEALSMAQEVDPEGDRTIGILTKPDLVDKGTEDKVVDVVRNLVFHLKKGYMIVKCRGQQEIQDQLSLSEALQREKIFFENHPYFRDLLEEGKATVPCLAEKLTSELITHICKSLPLLENQIKETHQRITEELQKYGVDIPEDENEKMFFLIDKINAFNQDITALMQGEETVGEEDIRLFTRLRHEFHKWSTIIENNFQEGHKILSRKIQKFENQYRGRELPGFVNYRTFETIVKQQIKALEEPAVDMLHTVTDMVRLAFTDVSIKNFEEFFNLHRTAKSKIEDIRAEQEREGEKLIRLHFQMEQIVYCQDQVYRGALQKVREKELEEEKKKKSWDFGAFQSSSATDSSMEEIFQHLMAYHQEASKRISSHIPLIIQFFMLQTYGQQLQKAMLQLLQDKDTYSWLLKERSDTSDKRKFLKERLARLTQARRRLAQFPGEG”, the “soluble on expression in E. coli” value was “not soluble”.
For “AKKLKKEYLDWYNQILEFSNLSNNSVKIDTPFKDNSLDNLKIYALYDQSRDMITLTDDGYTIFGLENNGVSINKFKKRKKIFEEHLSAYGIKYNDKTHEIFVQTNFKNFNKSKHNLLQCLIFVNDMYLLSNPKSQNIFTEDVANKLDEHNIYYGRDIPIIGSSGVVHNFDFFISAKKNQKEKFINVFSNPNNSMIIKSKITDAMQAKKIKRHRQNEFIFILNDSKKEINEHNKNLLHENYISTIDYSELDEKIGLL”, the “soluble on expression in E. coli” value was “not soluble”.
With “MGSDKIHHHHHHMNKTVDMTVNTIYLVGGGKGGVGKSVVALALVDHLQRRGVNTVLVENDTSNPDVMRAVHEEIACASFDLDTAGGWIDMVNYCDGHRDAVVVVSTAARNQDGVTRYGATLGSTLDELGRRLVVFWVINRQRDSLELLRQFSETFPDATVHVVRNGYYGAPERFVLYQDSKLRKSIEAKGRSLDFPELADRVADDLRSHRLSVRKAVETLPIGQRAELLRWRACYDAMFSQVTDDA” the “soluble on expression in E. coli” value was “not soluble”.
For “MMKRQTWPEPTIPVSQQFARGNFPVGIICEHPGEVNAYRYSSEEKRAMEHATEEQVQDLRCAAEVHRQVRRYAQSFIKPGISLLSMTDRIEKKLEELIEKDGLNRGQAFPTGCSLNHVAAHYTPNTGDKCVLMYDDVMKVDFGTQINGRIIDCAWTVAFKDEYEPLLTAVKEATYEGVKQAGIDVRLCDVGAAIQEVMESYEVELNGKVYPVKSIRNLSGHTIAPYVIHGGKSVPIVRGGEATRMEEGELFAIETFGSTGRGFVQEDMECSHYMMVPGGEKTQVRSDKAQQLLRHIHKTYNTLAFARKWLDRDGHDRHLLNLNQLVEAGAVNKYPPLCDIRGCYTAQLEHTLILKPTAKEILSKGDDY”, the “soluble on expression in E. coli” value was “not soluble”.
For “GSEDINRNPLLPTKEDEKMDGVIYGAYLPNLEKSVIPIGTASESTEPVNRYQIGVNLAGDAWAGYMSPRDNKFNGSKNFTNYFMYENWVNYVYSFMVTDVYSPWMQIKRISQDEGTRNDEIYALAQIIKIAALHRTTDMFGPIPYSQVGKGSFKVAYDSQESVYRSFLKELEEAVQTLDDYSNKSKEVLPAFDIVYNGDVNKWMRFANSLMLRLAIRVRFADAGLAKEYAEKAVKHPAGLINSKELAAQMGKGAGLQMKNPLKVINEEYNDTRMGATIYSYLAGYNDARAAVYFVKNNGFKAVRCGIAKSGDAYNGFTRPNVHEDDPLYWMKASEVCFLKAEGALAGFDMGGSAGDFYNAGIRMSFSENGLDNSSAETYLKDSTRKPANYTDTSNGELSANAPSSITIRWENGATEEEKLERIITQKYLAIFPNGQEAWTEWRRTGYPRQIVVAENKTNSAVLIGNGYDLGGVRRLPYPRTEYEQNGENLHNAISQYLGGVDNAATKVWWDKKSK”, the “soluble on expression in E. coli” value was “soluble”.
